Results reported in patent CN114149501A (TENCEL BIOMEDICINE CO LTD, dated 2022).

Columns and labels:
[1] = target: T1, 人源重组C5蛋白 (Sino Biologica, Cat#13416-H18H) (human, UniProt P01031 19-1676); test: BLI (Octet), antibody on AHC sensor, C5 0.4688-30 nM; run no. 5
T1 construct: also called 人源C5蛋白; 全长C5

[2] = target: T1, 人源重组C5蛋白 (Sino Biologica, …); test: BLI (Octet), antibody on AHC sensor, C5 0.4688-30 nM; run no. 4
[3] = target: T1, 人源重组C5蛋白 (Sino Biologica, …); test: BLI (Octet), antibody on AHC sensor, C5 0.4688-30 nM; run no. 1
[4] = target: T1, 人源重组C5蛋白 (Sino Biologica, …); test: BLI (Octet), antibody on AHC sensor, C5 0.4688-30 nM; run no. 3
[5] = target: T1, 人源重组C5蛋白 (Sino Biologica, …); test: BLI (Octet), antibody on AHC sensor, C5 0.4688-30 nM; run no. 2

T1 sequence (P01031 19-1676 limits assumed): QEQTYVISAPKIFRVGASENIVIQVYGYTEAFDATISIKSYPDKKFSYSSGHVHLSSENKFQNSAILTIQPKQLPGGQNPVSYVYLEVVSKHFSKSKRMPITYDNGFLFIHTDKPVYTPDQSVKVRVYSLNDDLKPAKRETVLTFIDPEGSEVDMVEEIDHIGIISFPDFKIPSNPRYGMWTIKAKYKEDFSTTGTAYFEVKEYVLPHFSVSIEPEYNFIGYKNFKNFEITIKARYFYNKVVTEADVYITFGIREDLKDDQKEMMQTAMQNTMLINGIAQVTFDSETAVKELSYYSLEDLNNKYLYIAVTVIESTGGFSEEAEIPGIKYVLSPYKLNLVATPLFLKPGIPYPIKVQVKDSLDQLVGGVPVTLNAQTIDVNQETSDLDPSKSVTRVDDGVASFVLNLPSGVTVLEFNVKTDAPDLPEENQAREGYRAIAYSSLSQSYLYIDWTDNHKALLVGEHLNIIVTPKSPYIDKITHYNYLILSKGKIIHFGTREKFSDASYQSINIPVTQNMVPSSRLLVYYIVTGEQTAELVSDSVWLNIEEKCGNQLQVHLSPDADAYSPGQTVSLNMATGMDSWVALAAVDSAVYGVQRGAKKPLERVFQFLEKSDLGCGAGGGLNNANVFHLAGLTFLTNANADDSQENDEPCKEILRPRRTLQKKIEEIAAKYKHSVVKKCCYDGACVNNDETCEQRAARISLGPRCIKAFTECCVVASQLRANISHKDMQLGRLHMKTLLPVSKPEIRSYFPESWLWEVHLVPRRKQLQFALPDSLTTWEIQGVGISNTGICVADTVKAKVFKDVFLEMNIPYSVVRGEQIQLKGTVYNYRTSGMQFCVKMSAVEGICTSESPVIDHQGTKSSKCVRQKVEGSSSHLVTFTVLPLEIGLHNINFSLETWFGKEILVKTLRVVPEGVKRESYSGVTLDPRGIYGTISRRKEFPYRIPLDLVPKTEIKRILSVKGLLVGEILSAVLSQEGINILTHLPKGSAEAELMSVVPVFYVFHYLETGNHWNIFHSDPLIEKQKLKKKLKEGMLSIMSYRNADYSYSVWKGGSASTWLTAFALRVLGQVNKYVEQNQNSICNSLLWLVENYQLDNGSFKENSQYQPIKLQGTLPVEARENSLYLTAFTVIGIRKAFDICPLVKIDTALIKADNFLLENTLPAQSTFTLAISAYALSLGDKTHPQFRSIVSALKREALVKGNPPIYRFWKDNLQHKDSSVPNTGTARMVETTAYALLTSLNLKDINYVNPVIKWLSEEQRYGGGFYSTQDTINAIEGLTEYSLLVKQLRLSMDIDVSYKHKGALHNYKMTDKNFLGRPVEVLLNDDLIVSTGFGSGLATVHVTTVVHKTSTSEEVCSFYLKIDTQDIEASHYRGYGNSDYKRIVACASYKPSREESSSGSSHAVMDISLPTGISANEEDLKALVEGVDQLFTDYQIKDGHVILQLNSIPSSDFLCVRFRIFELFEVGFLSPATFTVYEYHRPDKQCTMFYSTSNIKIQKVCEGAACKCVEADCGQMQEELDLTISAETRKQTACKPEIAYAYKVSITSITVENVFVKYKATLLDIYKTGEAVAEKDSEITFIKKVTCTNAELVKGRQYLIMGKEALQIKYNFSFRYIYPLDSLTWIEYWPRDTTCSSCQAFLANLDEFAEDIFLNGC

Kd [1]: 0.72 nM
koff [1]: 0.000309 s⁻¹
kon [1]: 429000 M⁻¹ s⁻¹
Kd [2]: 0.722 nM
koff [2]: 0.000307 s⁻¹
kon [2]: 425000 M⁻¹ s⁻¹
Kd [3]: 0.366 nM
koff [3]: 0.000151 s⁻¹
kon [3]: 413000 M⁻¹ s⁻¹
Kd [4]: 0.616 nM
koff [4]: 0.000279 s⁻¹
kon [4]: 452000 M⁻¹ s⁻¹
Kd [5]: 0.614 nM
koff [5]: 0.0003 s⁻¹
kon [5]: 488000 M⁻¹ s⁻¹
B1: CR3#75/IgG4 (antibody, V domains shown)
VH: EVQLVQSGAEVKKPGATVKISCKVSGYTFTDYYTHWVQQAPGKGLEWMGLVDPEGGETIYAEKFQGRVTITADASTDTAYMELSSLRSEDTAVYYCATGSFLAAPDYWGQGTTVTVSS
VL: not shown
notes: also called 抗C5抗体CR3#75; S125(38#)-3
